Data set [1] relates to VT-TALE (dAvrBs3 TALE with periodic non-RVD mutations at repeat positions 4 and 32). The data set is described as follows: ITC. Conditions: ITC: 50 mM Tris-HCl pH 8.0, 200 mM NaCl, 1 mM DTT, 5% glycerol; 15 and 25 °C; 96 μM DNA injected into TALE; single-site model.
The test system of data set [2] is CT-TALE (dAvrBs3 TALE without periodic non-RVD mutations at repeat positions 4 and 32). The data set is described as follows: ITC. Conditions: ITC: 50 mM Tris-HCl pH 8.0, 200 mM NaCl, 1 mM DTT, 5% glycerol; 15 and 25 °C; 96 μM DNA injected into TALE; single-site model.

pKd: −log10 of the molar value. Where “and” joins values, the source holds several entries; their conditions need not be identical. Identical values can stand only once.

For orientation: pKd means the Kd on a negative log10 scale, so that one unit is a factor of ten. A high value points to a small Kd. Regarding “GGGTATACTCACACAATAGCTGGG (double strand) [EBEf]”, the pKd in data set [1] is 6.88 and 6.49; in data set [2] it was 6.86 and 6.46.

Regarding “GGGTATACTCACTGGGTGTGGGGG (double strand) [EBEn]”, the pKd in data set [1] is 6.93 and 6.58; in data set [2], 6.96 and 6.52.

For the origin of these results see article PMC5121632.
